From article PMC10716038, “Talin and kindlin use integrin tail allostery and direct binding to activate integrins” (Nature Structural & Molecular Biology, 2023)
Substitutions are numbered along the chain they refer to. Values joined by “and” are separate entries in the source; they are usually repeats but may differ in a detail not shown here. Equal values may be shown once. Blank lines part the entries; values can stand above or below the binder they belong to. No end group written: not given here.

Assays:
TLN1-F3^K402E = target: T1, TLN1-F3^K402E (UniProt P26039 305-405, K402E); assay: NMR titration; isotope-labelled β1-CT observed; TLN1-F3 and ΔKIND2 (wild type or K402E / Y13A) added together, ternary complex; 20 mM Tris, 200 mM NaCl, 1 mM DTT, pH 7.5, 298 K; conditions: both partners purified
T1 construct: source: E. coli (DE3) Rosetta 2, purified (IMAC, SEC); not shown: His10, N-terminal, cleaved; SUMO, N-terminal, cleaved

[1] = target: T2, F3 domain of TLN1 (TLN1-F3) (UniProt P26039 305-405); assay: NMR titration; isotope-labelled β1-CT observed (1H-15N HSQC, 1H-13C methyl correlations); unlabelled TLN1-F3 or ΔKIND2 added alone at increasing stoichiometries; 20 mM Tris, 200 mM NaCl, 1 mM DTT, pH 7.5, 298 K; conditions: both partners purified
T2 construct: Used unlabelled, 15N-labelled or partially deuterated in NMR; also called T1-F3; source: E. coli (DE3) Rosetta 2, purified (IMAC, SEC); not shown: His10, N-terminal, cleaved; SUMO, N-terminal, cleaved

[2] = target: T3, F3 domain of TLN2 (TLN2-F3) (UniProt Q71LX4 311-408); assay: MST
T3 chain: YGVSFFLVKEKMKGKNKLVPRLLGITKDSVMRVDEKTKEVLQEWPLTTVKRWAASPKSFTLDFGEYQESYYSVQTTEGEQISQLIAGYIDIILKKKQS

[3] = target: T4, F3 domain of TLN1 (TLN1-F3) (UniProt P26039 305-405); assay: MST
T4 chain: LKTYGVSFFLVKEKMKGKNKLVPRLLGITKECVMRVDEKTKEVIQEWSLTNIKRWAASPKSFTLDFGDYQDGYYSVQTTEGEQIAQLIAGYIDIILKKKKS

[4] = target: T5, KIND2 lacking the flexible loop in F1 and the PH domain (ΔKIND2); assay: MST
T5 chain: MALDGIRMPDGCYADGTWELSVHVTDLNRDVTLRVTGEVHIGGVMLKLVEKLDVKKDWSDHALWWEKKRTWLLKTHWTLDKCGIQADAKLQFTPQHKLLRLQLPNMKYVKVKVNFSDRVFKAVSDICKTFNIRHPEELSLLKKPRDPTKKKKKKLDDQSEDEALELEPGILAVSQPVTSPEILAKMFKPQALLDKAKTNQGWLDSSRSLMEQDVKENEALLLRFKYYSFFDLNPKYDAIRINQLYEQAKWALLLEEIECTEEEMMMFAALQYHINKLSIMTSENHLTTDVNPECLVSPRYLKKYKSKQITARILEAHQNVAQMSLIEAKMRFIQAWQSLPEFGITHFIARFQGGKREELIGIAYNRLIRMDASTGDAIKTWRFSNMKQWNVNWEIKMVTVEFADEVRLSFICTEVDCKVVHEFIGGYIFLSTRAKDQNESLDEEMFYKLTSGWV

[5] = target: T6, talin-1 head domain (THD1) (UniProt P26039 1-405); assay: MST; ATTO 488-labelled β-CT peptide (50–200 nM) held constant, one unlabelled protein titrated; 20 mM Tris pH 7.5, 200 mM NaCl, 1 mM TCEP, 0.05% Tween-20; apparent affinities (near-saturation only); conditions: both partners purified
T6 construct: talin-1 (TLN1) head domain (F0-F3), residues 1-405; In FC-RDA a copy labelled with ATTO 565 (565–THD1) was the reporter; also called 565–THD1; source: E. coli (DE3) Rosetta 2, purified (IMAC, SEC); not shown: His10, N-terminal, cleaved; SUMO, N-terminal, cleaved

[6] = target: T7, talin-2 head domain (THD2) (UniProt Q71LX4 1-408); assay: as above; conditions: both partners purified
T7 construct: talin-2 (TLN2) head domain, residues 1-408; source: E. coli (DE3) Rosetta 2, purified (IMAC, SEC); not shown: His10, N-terminal, cleaved; SUMO, N-terminal, cleaved

kindlin-2 (KIND2) [7] = target: T8, kindlin-2 (KIND2) (UniProt Q8CIB5 1-680); assay: as above; conditions: both partners purified
T8 construct: kindlin-2 (KIND2) without the deletions of ΔKIND2; In FC-RDA a copy labelled with Alexa 647 (647–KIND2) was the reporter; also called 647–KIND2; source: E. coli Rosetta, purified (IMAC, SEC); not shown: His10, N-terminal, cleaved; SUMO, N-terminal, cleaved
T8 sequence (looked up): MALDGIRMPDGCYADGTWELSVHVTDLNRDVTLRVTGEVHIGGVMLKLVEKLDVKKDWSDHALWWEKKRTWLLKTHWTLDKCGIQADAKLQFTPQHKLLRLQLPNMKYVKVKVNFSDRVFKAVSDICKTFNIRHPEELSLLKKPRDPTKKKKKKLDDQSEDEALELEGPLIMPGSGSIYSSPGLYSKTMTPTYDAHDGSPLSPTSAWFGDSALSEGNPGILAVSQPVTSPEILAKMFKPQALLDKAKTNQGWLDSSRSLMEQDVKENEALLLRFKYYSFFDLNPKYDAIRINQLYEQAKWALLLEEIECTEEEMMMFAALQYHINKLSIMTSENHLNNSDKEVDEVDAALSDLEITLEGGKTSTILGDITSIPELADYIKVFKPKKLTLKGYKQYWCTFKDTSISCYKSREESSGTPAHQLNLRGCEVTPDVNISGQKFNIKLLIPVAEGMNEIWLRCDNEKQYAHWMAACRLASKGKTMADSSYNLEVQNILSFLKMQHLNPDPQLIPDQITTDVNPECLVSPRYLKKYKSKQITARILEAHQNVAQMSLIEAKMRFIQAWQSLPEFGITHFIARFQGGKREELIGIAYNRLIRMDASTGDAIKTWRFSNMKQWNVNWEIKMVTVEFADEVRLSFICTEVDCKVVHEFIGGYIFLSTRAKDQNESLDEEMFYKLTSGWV

THD1^K402E [8] = target: T9, THD1^K402E (UniProt P26039 1-405, K402E); assay: as above; conditions: both partners purified
T9 construct: talin-1 (TLN1) head domain, residues 1-405, with K402E; In FC-RDA a copy labelled with ATTO 565 was the reporter; also called 565–THD1^K402E; source: E. coli (DE3) Rosetta 2, purified (IMAC, SEC); not shown: His10, N-terminal, cleaved; SUMO, N-terminal, cleaved
T9 sequence (P26039 1-405 K402E): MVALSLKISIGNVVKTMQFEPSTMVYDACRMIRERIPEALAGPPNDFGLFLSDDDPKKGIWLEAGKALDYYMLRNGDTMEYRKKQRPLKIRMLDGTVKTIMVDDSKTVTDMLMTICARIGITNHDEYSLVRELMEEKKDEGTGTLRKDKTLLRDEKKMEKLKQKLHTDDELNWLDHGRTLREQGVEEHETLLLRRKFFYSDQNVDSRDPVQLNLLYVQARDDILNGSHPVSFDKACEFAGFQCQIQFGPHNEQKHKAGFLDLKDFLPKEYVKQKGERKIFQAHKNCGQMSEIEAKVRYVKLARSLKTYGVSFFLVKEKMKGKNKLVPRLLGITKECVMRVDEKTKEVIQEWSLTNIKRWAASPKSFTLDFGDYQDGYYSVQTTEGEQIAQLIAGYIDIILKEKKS

KIND2^Y13A [9] = target: T10, KIND2^Y13A (UniProt Q8CIB5 1-680, Y13A); assay: as above; conditions: both partners purified
T10 construct: kindlin-2 (KIND2) with Y13A; In FC-RDA a copy labelled with Alexa 647 was the reporter; also called 647–KIND2^Y13A; source: E. coli Rosetta, purified (IMAC, SEC); not shown: His10, N-terminal, cleaved; SUMO, N-terminal, cleaved
T10 sequence (looked up): T8 sequence (looked up) with Y13A

[10] = target: T6, talin-1 head domain (THD1); assay: flow cytometry-based reporter-displacement assay (FC-RDA) on beads; biotinylated TM–CT in nanodiscs (10% PIP2 or PIP3, 90% DMPC) on streptavidin Dynabeads; reporters 100 nM 565–THD1 or 50 nM 647–KIND2; unlabelled THD1 or KIND2 titrated; 20 mM Tris pH 7.5, 200 mM NaCl, 10 min at room temperature; the lipids add to the binding; conditions: both partners purified
kindlin-2 (KIND2) [11] = target: T8, kindlin-2 (KIND2); assay: as above; conditions: both partners purified
THD1^K402E [12] = target: T9, THD1^K402E; assay: as above; conditions: both partners purified
KIND2^Y13A [13] = target: T10, KIND2^Y13A; assay: as above; conditions: both partners purified

binding result (TLN1-F3^K402E): binds
binding result [1]: binds
B1: integrin β1A cytoplasmic tail (β1-CT), recombinant (peptide, UniProt P05556-1 758-798, looked up)
chain: HDRREFAKFEKEKMNAKWDTGENPIYKSAVTTVVNPKYEGK
notes: integrin β1, splice isoform A, cytoplasmic tail, residues 758-798; DNA synthesised; 15N-, 13C,15N- or 2H,13C,15N-labelled when observed by NMR; also called β1A-CT; integrin-β1-CT; source: E. coli (DE3) Rosetta 2 in M9 medium, purified (IMAC, cation exchange); not shown: His10, N-terminal, cleaved; SUMO, N-terminal, cleaved

Kd [2]: 98 µM
Kd [3]: 106 µM
Kd [4]: 6.8 µM
Kd [5]: 108 µM and 105 µM
Kd [6]: 39 µM
Kd (kindlin-2 (KIND2) [7]): 9 µM
Kd (THD1^K402E [8]): 34 µM
Kd (KIND2^Y13A [9]): 9 µM
B2: ATTO 488-labelled β3-CT (488–β3-CT) (peptide, UniProt O54890 741-787, looked up)
peptide: {ATTO 488}-KLLITIHDRKEFAKFEEERARAKWDTANNPLYKEATSTFTNITYRGT
notes: integrin β3 cytoplasmic tail; source: synthetic peptide (MPIB Core Facility)

binding result [10]: binds
binding result (kindlin-2 (KIND2) [11]): binds
binding result (THD1^K402E [12]): binds
binding result (KIND2^Y13A [13]): binds
B3: β3 transmembrane and cytoplasmic tail polypeptide (β3-TM–CT) in nanodiscs (domain or fragment, UniProt O54890 715-787, looked up)
chain: GPDILVVLLSVMGAILLIGLATLLIWKLLITIHDRKEFAKFEEERARAKWDTANNPLYKEATSTFTNITYRGT
modifications: biotin (biotin-maleimide)
notes: integrin β3 transmembrane helix and cytoplasmic tail, residues 715-787; Embedded in nanodiscs of 10% PIP2 or PIP3 and 90% DMPC; held on streptavidin beads by the biotin; source: E. coli BL21 (DE3) Rosetta 2, inclusion bodies, purified (IMAC, cation exchange), put into MSP2N2 nanodiscs
